Measured values taken from US20230071765A1, “COMPOSITIONS HAVING THIOREDOXIN ACTIVITY AND RELATED METHODS” (ORPRO THERAPEUTICS, INC., priority 2020, published 2023).

Target: human insulin (disulfide-bonded heterodimer) (human) (UniProt P01308)
Experiment: cell-based or functional assay

Sequence of human insulin (disulfide-bonded heterodimer) (human) (P01308 90-110 limits assumed, chain 1 of 2): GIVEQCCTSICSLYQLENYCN
Sequence of human insulin (disulfide-bonded heterodimer) (human) (P01308 25-54 limits assumed, chain 2 of 2): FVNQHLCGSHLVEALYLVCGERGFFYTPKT

Row | Relative % insulin reduction (ORP100S Ox 0 : Red 100) (% relative to maximum) | Relative % insulin reduction (ORP100S mixture Ox 25 : Red 75) (% relative to maximum) | Relative % insulin reduction (ORP100S mixture Ox 50 : Red 50) (% relative to maximum) | Relative % insulin reduction (ORP100S mixture Ox 75 : Red 25) (% relative to maximum) | maximum insulin heterodimer reaction with fully reduced material (RP-HPLC insulin reduction assay) [%] | Relative % insulin reduction (ORP100S Ox 100 : Red 0) (% relative to maximum) | Binder
1 | 100 | 72 | 51 | 36 | 45 |  | ORP100S (fully monocysteinic human thioredoxin-1, reduced form) (enzyme) VKQIESKTAFQEALDAAGDKLVVVDFSATWCGPSKMIKPFFHSLSEKYSNVIFLEVDVDDSQDVASESEVKSMPTFQFFKKGQKVGEFSGANKEKLEATINELV
2 |  |  |  |  |  | 8 | oxidized ORP100S treated with iodacetamide (IA) (enzyme, Cys32 oxidized / treated with iodoacetamide, as printed: 'oxidized ORP100S treated with iodacetamide (IA)') VKQIESKTAFQEALDAAGDKLVVVDFSATWCGPSKMIKPFFHSLSEKYSNVIFLEVDVDDSQDVASESEVKSMPTFQFFKKGQKVGEFSGANKEKLEATINELV
